Experiments:
[1] = target: recombinant wild-type human C3d with its native thioester cysteine intact (C3d^17C) (human) (UniProt P01024); assay: non-reducing SDS-PAGE; recombinant C3d^17C 'under non-reducing conditions', 'in a similar manner' to C3b (Supplementary Figure S2, not shown)
[2] = target: recombinant wild-type human C3d with its native thioester cysteine intact (C3d^17C) (human) (UniProt P01024); assay: SEC; size exclusion chromatography of C3d^17C in solution (Supplementary Figure S2); monomer and disulphide-linked dimer
[3] = target: human CR2(SCR1-4)-Fc (human)

Row | stoichiometry N [1] | stoichiometry N [2] | geometric mean EC50 of upregulation of CD69 on CD19+ B cells in human PBMC, with anti-IgM F(ab')2 [3] | geometric mean EC50 of upregulation of CD86 on CD19+ B cells in human PBMC, with anti-IgM F(ab')2 [3] | Substance
1 | 2 | 2 |  |  | recombinant wild-type human C3d with its native thioester cysteine intact (C3d^17C) (from UniProt P01024 996-1303) (domain or fragment)
2 |  |  | 47 nM | 18 nM | chemically-linked dimeric C3d^17C (from UniProt P01024 996-1303)
3 |  |  | 139 nM | 59 nM | human C3d with a Cys to Ala mutation at position 17(C3d)/1010 (pre-pro C3) (C3d^17A) (from UniProt P01024 996-1303) (domain or fragment)
